Experimental data: US8680041B2, “Genetic variations associated with tumors” (Genentech, Inc., priority 2006, dated 2014)

B1: p85 R162stop: mutant form of p85α discovered pursuant to this study; truncated (protein)
chain: MSAEGYQYRALYDYKKEREEDIDLHLGDILTVNKGSLVALGFSDGQEARPEEIGWLNGYNETTGERGDFPGTYVEYIGRKKISPPTPKPRPPRPLPVAPGSSKTEADVEQQALTLPDLAEQFAPPDIAPPLLIKLVEAIEKKGLECSTLYRTQSSSNLAEL
modifications: left off: small tags and cut ends
notes: mutant form of p85α discovered pursuant to this study; truncated

Legend:
p110alpha E545K = biological target: T1, p110alpha E545K (Homo sapiens, UniProt P42336, E545K); assay: Co-immunoprecipitation of HA-tagged p85α with p110α in transfected Cos 7 cells; assay type: binding; design: key: “yes” (“Y”); “no” (“N”); conditions: HA bead immunoprecipitation, blot
T1 construct: expressed in transfected cells; host or cells: Cos 7
T1 sequence (P42336 whole entry E545K): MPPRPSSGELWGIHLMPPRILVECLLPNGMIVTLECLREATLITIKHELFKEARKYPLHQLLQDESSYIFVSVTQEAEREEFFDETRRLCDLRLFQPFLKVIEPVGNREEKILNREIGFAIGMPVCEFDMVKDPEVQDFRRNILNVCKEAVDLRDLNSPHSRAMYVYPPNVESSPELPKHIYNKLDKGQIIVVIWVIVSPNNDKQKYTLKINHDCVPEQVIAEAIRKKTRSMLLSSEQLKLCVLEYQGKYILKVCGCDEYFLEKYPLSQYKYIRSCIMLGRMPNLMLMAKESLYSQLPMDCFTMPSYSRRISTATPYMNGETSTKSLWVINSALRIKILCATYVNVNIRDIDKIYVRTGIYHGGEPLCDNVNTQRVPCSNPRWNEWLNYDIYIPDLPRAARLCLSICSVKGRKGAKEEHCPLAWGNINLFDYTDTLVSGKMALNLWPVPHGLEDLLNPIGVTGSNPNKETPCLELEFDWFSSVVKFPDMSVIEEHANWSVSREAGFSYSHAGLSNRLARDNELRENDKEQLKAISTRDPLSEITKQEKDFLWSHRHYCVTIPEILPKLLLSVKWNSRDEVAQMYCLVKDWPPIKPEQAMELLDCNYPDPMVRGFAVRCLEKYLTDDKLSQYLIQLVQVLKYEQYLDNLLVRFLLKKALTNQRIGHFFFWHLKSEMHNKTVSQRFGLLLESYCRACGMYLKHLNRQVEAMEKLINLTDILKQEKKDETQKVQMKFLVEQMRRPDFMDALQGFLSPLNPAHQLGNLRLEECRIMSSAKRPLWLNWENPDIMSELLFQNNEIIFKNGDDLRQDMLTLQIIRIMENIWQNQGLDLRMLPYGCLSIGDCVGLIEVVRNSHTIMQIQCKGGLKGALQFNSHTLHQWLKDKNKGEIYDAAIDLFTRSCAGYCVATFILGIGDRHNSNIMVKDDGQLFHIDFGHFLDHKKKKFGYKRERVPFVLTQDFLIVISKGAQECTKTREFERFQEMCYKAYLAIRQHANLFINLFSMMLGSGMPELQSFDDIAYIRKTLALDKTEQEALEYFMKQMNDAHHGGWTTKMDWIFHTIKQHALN
Method: (§1) The ability of p85α mutants to bind to p110α was assessed. Cos 7 cells were transiently transfected with nucleic acid encoding N-terminally HA-tagged p85α protein (either wild-type or mutant, as indicated in Table 2 below) and with nucleic acid encoding p110α (either wild-type or mutant, as indicated in Table 2 below). Proteins were immunoprecipitated using HA beads, separated by SDS-PAGE, transferred to nitrocellulose, and detected using anti-HA and anti-p110α antibodies. Binding of p85α to p110α is indicated as either “yes” (“Y”) or “no” (“N”) in Table 2. In the second row of Table 2, the term “p85 Dominant Negative” refers to a known dominant negative form of p85α in which the p110α binding domain from amino acids 479-513 is deleted. The remaining mutant forms of p85α listed in the first column of Table 2 were discovered pursuant to this study. In the header row of Table 2, the terms “p110alpha E545K” and “p110alpha H1047R” refer to two known mutational “hot spots” in p110α which result in constitutively active p110α.

p110alpha H1047R = biological target: T2, p110alpha H1047R (Homo sapiens, UniProt P42336, H1047R); assay: as above; assay type: binding; design: key: “yes” (“Y”); “no” (“N”); conditions: HA bead immunoprecipitation, blot
T2 construct: expressed in transfected cells; host or cells: Cos 7
T2 sequence (P42336 whole entry H1047R): as the sequence (P42336 whole entry E545K) above, with K545E, H1047R counted along it
Method: as §1

p110alpha WT = biological target: T3, p110alpha WT (Homo sapiens, UniProt P42336); assay: as above; assay type: binding; design: key: “yes” (“Y”); “no” (“N”); conditions: HA bead immunoprecipitation, blot
T3 construct: expressed in transfected cells; host or cells: Cos 7
T3 sequence (P42336 whole entry): as the sequence (P42336 whole entry E545K) above, with K545E counted along it
Method: as §1

wild-type p110α = assay: Fluorescence polarization assay of p110α activity in p85α/p110α complexes, phosphoinositide as substrate; assay type: biochemical; conditions: for p110α activity of the complex compared with the wild type complex (in words): absence of peptide; for Activity of p110α in the complex, No peptide: no phosphotyrosine peptide; for Activity of p110α in the complex, No peptide / Activity of p110α in the complex, Peptide (1 uM): normalized to wild-type complex in the absence of peptide; for Activity of p110α in the complex, Peptide (1 uM): phosphotyrosine (IRS-1) peptide 1 uM
Method: The ability of p85α mutant proteins to form active complexes with p110α was also assessed. Complexes consisting of p85α protein (either wild-type or mutant, as indicated in Table 3 below) and wild-type p110α were expressed in baculovirus. Activity of p110α in the complexes was assessed using a fluorescence polarization assay with phosphoinositide as the substrate. The assay was conducted in the absence or presence of a phosphotyrosine peptide (referred to as “peptide” in Table 3 below). That peptide corresponds to a phosphotyrosine-containing region of Insulin Receptor Substrate-1 that binds to the SH2 region of p85α and enhances the activity of the wild-type p85α/p110α complex. See Miled et al., Science, 317:239-242 (2007). The p85α mutants tested in Table 3 have mutations in their C-terminal SH2 domains. The activities were normalized to the value obtained for p110α in the wild-type complex in the absence of peptide.

Molecule	Binding of p85α to p110α (p110alpha E545K)	Binding of p85α to p110α (p110alpha H1047R)	Binding of p85α to p110α (p110alpha WT)	p110α activity of the complex compared with the wild type complex (in words) (wild-type p110α)	Activity of p110α in the complex, No peptide (wild-type p110α)	Activity of p110α in the complex, Peptide (1 uM) (wild-type p110α)
p85 N285H: mutant form of p85α discovered pursuant to this study	Y	Y	Y			
p85 N564D: mutant form of p85α discovered pursuant to this study	Y	Y	Y	increased p110α activity	1.71	2.47
p85 R543I: mutant form of p85α discovered pursuant to this study	Y	Y	Y			
p85 R574I: mutant form of p85α discovered pursuant to this study	Y	Y	Y			
p85 R642stop: mutant form of p85α discovered pursuant to this study	Y	Y	Y			
p85 N527K: mutant form of p85α discovered pursuant to this study	Y	Y	Y	decreased p110α activity	0.75	1.92
p85 L449S: mutant form of p85α discovered pursuant to this study	Y	Y	Y			
p85 WT: wild-type p85α, regulatory subunit of PI3K encoded by PIK3R1 [reference compound]					1	2.77
p85 R649Q: mutant form of p85α discovered pursuant to this study	Y	Y	Y	decreased p110α activity	0.45	1.7
p85 A682V: mutant form of p85α discovered pursuant to this study	Y	Y	Y			
p85 R348stop: mutant form of p85α discovered pursuant to this study; truncated	N	N	N			
p85 E666K: mutant form of p85α discovered pursuant to this study	Y	Y	Y	comparable to that seen in the wild type complex	0.92	2.54
p85 Dominant Negative: known dominant negative form of p85α in which the p110α binding domain from amino acids 479-513 is deleted [reference compound]	N	N	N			
B1	N	N	N			
